Measured values taken from patent EP0266663A1.

How the values were obtained:
L6 antigen (human) [1] = target: L6 antigen (human) (UniProt P30408); test: inhibition of the binding of FITC-labelled mouse L6 to 3347 cells, flow cytometry; 50% inhibition; run with the chimeric L6 from ascites
L6 antigen (human) [2] = target: L6 antigen (human) (UniProt P30408); test: inhibition of the binding of FITC-labelled mouse L6 to 3347 cells, flow cytometry; 50% inhibition; run with the pooled chimeric L6
L6 antigen (human) [3] = target: L6 antigen (human) (UniProt P30408); test: inhibition of the binding of FITC-labelled mouse L6 to 3347 cells, flow cytometry; 50% inhibition
L6 antigen (human) [4] = target: L6 antigen (human) (UniProt P30408); test: cell-based or functional assay

UniProt P30408, sequence (P30408 whole entry): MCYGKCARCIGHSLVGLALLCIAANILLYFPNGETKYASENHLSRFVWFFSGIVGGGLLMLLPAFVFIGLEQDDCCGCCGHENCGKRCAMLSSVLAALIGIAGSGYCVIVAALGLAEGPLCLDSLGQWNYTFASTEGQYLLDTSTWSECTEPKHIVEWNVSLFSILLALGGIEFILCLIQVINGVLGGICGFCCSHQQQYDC

L6 monoclonal antibody (mouse, IgG2a)
IC50 (L6 antigen (human) [1]): 2.7 µg/mL
IC50 (L6 antigen (human) [2]): 2 µg/mL

chimeric L6 antibody (from UniProt P01857 1-330)
IC50 (L6 antigen (human) [3]): 3.4 µg/mL
tumor killing activity (ADCC or CDC) (L6 antigen (human) [4]): 0.01 µg/mL
